Data taken from publication PMC7610691 (Nature structural & molecular biology, 2020).

What was measured:
[1] = target: T1, Ycg1 (S. cerevisiae condensin HEAT-repeat subunit) (S. cerevisiae, UniProt Q06680 1-1035); assay: cryo-EM structure
T1 sequence: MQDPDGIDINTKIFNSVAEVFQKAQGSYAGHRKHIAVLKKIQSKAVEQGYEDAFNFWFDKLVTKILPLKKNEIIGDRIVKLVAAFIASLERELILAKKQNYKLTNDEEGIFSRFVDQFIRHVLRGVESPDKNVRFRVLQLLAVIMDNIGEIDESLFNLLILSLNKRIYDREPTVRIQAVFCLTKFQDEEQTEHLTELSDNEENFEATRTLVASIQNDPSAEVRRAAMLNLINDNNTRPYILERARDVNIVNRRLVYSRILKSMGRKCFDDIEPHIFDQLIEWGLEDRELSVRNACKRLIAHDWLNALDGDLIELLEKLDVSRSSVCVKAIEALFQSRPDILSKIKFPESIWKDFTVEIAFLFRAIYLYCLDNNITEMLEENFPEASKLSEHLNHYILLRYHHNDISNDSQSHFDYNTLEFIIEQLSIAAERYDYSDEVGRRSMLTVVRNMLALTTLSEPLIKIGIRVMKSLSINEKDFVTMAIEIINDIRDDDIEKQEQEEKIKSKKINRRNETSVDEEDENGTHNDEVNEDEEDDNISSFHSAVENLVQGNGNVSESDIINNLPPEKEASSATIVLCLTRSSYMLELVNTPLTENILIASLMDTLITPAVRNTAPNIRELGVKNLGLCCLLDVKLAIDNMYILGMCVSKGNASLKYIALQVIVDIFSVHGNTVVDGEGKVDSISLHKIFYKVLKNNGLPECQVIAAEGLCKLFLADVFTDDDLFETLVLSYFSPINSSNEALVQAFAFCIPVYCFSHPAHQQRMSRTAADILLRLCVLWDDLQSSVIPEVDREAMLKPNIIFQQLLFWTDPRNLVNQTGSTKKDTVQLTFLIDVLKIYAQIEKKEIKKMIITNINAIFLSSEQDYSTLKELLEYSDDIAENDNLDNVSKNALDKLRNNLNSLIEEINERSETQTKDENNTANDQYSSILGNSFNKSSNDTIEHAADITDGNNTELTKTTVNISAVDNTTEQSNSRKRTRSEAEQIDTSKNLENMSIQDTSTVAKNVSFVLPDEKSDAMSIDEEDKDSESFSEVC

[2] = target: T2, Ycs4 (S. cerevisiae condensin HEAT-repeat subunit) (S. cerevisiae, UniProt Q06156 1-1176); assay: cryo-EM structure
T2 sequence: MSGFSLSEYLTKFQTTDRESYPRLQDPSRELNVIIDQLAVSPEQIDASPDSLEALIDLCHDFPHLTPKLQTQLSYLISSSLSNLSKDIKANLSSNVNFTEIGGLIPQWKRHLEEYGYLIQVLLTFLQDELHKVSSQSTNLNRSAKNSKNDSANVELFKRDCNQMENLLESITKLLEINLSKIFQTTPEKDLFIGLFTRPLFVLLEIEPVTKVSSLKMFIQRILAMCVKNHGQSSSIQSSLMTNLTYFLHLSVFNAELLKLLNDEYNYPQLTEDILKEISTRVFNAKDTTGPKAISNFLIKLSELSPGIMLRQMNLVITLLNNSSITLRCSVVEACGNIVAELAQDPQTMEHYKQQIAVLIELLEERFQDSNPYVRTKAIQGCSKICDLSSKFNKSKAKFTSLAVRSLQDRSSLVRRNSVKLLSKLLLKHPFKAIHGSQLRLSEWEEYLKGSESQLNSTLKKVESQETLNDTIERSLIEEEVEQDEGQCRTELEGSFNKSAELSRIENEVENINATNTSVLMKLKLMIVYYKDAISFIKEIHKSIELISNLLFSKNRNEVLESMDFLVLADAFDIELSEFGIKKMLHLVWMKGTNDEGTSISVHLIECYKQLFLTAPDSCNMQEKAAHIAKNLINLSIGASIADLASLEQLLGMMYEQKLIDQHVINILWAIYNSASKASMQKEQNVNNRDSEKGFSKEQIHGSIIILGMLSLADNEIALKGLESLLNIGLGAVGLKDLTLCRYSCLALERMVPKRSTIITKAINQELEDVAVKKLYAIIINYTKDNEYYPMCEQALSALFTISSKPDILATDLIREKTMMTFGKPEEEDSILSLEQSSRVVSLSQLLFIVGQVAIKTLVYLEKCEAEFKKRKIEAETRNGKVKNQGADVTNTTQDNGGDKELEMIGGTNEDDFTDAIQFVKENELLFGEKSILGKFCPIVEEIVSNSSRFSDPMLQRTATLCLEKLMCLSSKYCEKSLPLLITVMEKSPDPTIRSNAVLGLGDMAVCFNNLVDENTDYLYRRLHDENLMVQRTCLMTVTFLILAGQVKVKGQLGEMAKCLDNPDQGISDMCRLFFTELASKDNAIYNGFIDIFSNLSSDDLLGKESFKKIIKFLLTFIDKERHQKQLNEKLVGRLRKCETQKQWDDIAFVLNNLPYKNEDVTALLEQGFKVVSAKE

B1: Brn1 (S. cerevisiae condensin kleisin subunit) (natural protein)
chain: MTTQLRYENNDDDERVEYNLFTNRSTMMANFEEWIKMATDNKINSRNSWNFALIDYFYDLDVLKDGENNINFQKASATLDGCIKIYSSRVDSVTTETGKLLSGLAQRKTNGASNGDDSNGGNGEGLGGDSDEANIEIDPLTGMPISNDPDVNNTRRRVYNRVLETTLVEFETIKMKELDQELIIDPLFKKALVDFDEGGAKSLLLNTLNIDNTARVIFDASIKDTQNVGQGKLQRKEEELIERDSLVDDENEPSQSLISTRNDSTVNDSVISAPSMEDEILSLGMDFIKFDQIAVCEISGSIEQLRNVVEDINQAKDFIENVNNRFDNFLTEEELQAAVPDNAEDDSDGFDMGMQQELCYPDENHDNTSHDEQDDDNVNSTTGSIFEKDLMAYFDENLNRNWRGREHWKVRNFKKANLVNKESDLLEETRTTIGDTTDKNTTDDKSMDTKKKHKQKKVLEIDFFKTDDSFEDKVFASKGRTKIDMPIKNRKNDTHYLLPDDFHFSTDRITRLFIKPGQKMSLFSHRKHTRGDVSSGLFEKSTVSANHSNNDIPTIADEHFWADNYERKEQEEKEKEQSKEVGDVVGGALDNPFEDDMDGVDFNQAFEGTDDNEEASVKLDLQDDEDHKFPIRENKVTYSRVSKKVDVRRLKKNVWRSINNLIQEHDSRKNREQSSNDSETHTEDESTKELKFSDIIQGISKMYSDDTLKDISTSFCFICLLHLANEHGLQITHTENYNDLIVNYEDLATTQAAS
B1: binds [1]; binds [2].
